From patent US20130040894A1, “INHIBITION OR ACTIVATION OF SERINE/THREONINE ULK3 KINASE ACTIVITY” (TALLINN UNIVERSITY OF TECHNOLOGY, priority 2009, published 2013)

B1: STK36: human serine/threonine kinase STK36, mammalian orthologue of dFu, expressed from STK36pcDNA3.1 (protein, UniProt Q9NRP7 1-1315, looked up)
Serine/threonine-protein …: MEKYHVLEMIGEGSFGRVYKGRRKYSAQVVALKFIPKLGRSEKELRNLQREIEIMRGLRHPNIVHMLDSFETDKEVVVVTDYAEGELFQILEDDGKLPEDQVQAIAAQLVSALYYLHSHRILHRDMKPQNILLAKGGGIKLCDFGFARAMSTNTMVLTSIKGTPLYMSPELVEERPYDHTADLWSVGCILYELAVGTPPFYATSIFQLVSLILKDPVRWPSTISPCFKNFLQGLLTKDPRQRLSWPDLLYHPFIAGHVTIITEPAGPDLGTPFTSRLPPELQVLKDEQAHRLAPKGNQSRILTQAYKRMAEEAMQKKHQNTGPALEQEDKTSKVAPGTAPLPRLGATPQESSLLAGILASELKSSWAKSGTGEVPSAPRENRTTPDCERAFPEERPEVLGQRSTDVVDLENEEPDSDNEWQHLLETTEPVPIQLKAPLTLLCNPDFCQRIQSQLHEAGGQILKGILEGASHILPAFRVLSSLLSSCSDSVALYSFCREAGLPGLLLSLLRHSQESNSLQQQSWYGTFLQDLMAVIQAYFACTFNLERSQTSDSLQVFQEAANLFLDLLGKLLAQPDDSEQTLRRDSLMCFTVLCEAMDGNSRAISKAFYSSLLTTQQVVLDGLLHGLTVPQLPVHTPQGAPQVSQPLREQSEDIPGAISSALAAICTAPVGLPDCWDAKEQVCWHLANQLTEDSSQLRPSLISGLQHPILCLHLLKVLYSCCLVSEGLCRLLGQEPLALESLFMLIQGKVKVVDWEESTEVTLYFLSLLVFRLQNLPCGMEKLGSDVATLFTHSHVVSLVSAAACLLGQLGQQGVTFDLQPMEWMAAATHALSAPAEVRLTPPGSCGFYDGLLILLLQLLTEQGKASLIRDMSSSEMWTVLWHRFSMVLRLPEEASAQEGELSLSSPPSPEPDWTLISPQGMAALLSLAMATFTQEPQLCLSCLSQHGSILMSILKHLLCPSFLNQLRQAPHGSEFLPVVVLSVCQLLCFPFALDMDADLLIGVLADLRDSEVAAHLLQVCCYHLPLMQVELPISLLTRLALMDPTSLNQFVNTVSASPRTIVSFLSVALLSDQPLLTSDLLSLLAHTARVLSPSHLSFIQELLAGSDESYRPLRSLLGHPENSVRAHTYRLLGHLLQHSMALRGALQSQSGLLSLLLLGLGDKDPVVRCSASFAVGNAAYQAGPLGPALAAAVPSMTQLLGDPQAGIRRNVASALGNLGPEGLGEELLQCEVPQRLLEMACGDPQPNVKEAALIALRSLQQEPGIHQVLVSLGASEKLSLLSLGNQSLPHSSPRPASAKHCRKLIHLLRPAHSM
B2: ULK1: unc-51-like kinase 1, homologue of ULK3, overexpressed in Shh-L2 cells (protein, UniProt O75385 1-1050, looked up)
Serine/threonine-protein …: MEPGRGGTETVGKFEFSRKDLIGHGAFAVVFKGRHREKHDLEVAVKCINKKNLAKSQTLLGKEIKILKELKHENIVALYDFQEMANSVYLVMEYCNGGDLADYLHAMRTLSEDTIRLFLQQIAGAMRLLHSKGIIHRDLKPQNILLSNPAGRRANPNSIRVKIADFGFARYLQSNMMAATLCGSPMYMAPEVIMSQHYDGKADLWSIGTIVYQCLTGKAPFQASSPQDLRLFYEKNKTLVPTIPRETSAPLRQLLLALLQRNHKDRMDFDEFFHHPFLDASPSVRKSPPVPVPSYPSSGSGSSSSSSSTSHLASPPSLGEMQQLQKTLASPADTAGFLHSSRDSGGSKDSSCDTDDFVMVPAQFPGDLVAEAPSAKPPPDSLMCSGSSLVASAGLESHGRTPSPSPPCSSSPSPSGRAGPFSSSRCGASVPIPVPTQVQNYQRIERNLQSPTQFQTPRSSAIRRSGSTSPLGFARASPSPPAHAEHGGVLARKMSLGGGRPYTPSPQVGTIPERPGWSGTPSPQGAEMRGGRSPRPGSSAPEHSPRTSGLGCRLHSAPNLSDLHVVRPKLPKPPTDPLGAVFSPPQASPPQPSHGLQSCRNLRGSPKLPDFLQRNPLPPILGSPTKAVPSFDFPKTPSSQNLLALLARQGVVMTPPRNRTLPDLSEVGPFHGQPLGPGLRPGEDPKGPFGRSFSTSRLTDLLLKAAFGTQAPDPGSTESLQEKPMEIAPSAGFGGSLHPGARAGGTSSPSPVVFTVGSPPSGSTPPQGPRTRMFSAGPTGSASSSARHLVPGPCSEAPAPELPAPGHGCSFADPITANLEGAVTFEAPDLPEETLMEQEHTEILRGLRFTLLFVQHVLEIAALKGSASEAAGGPEYQLQESVVADQISLLSREWGFAEQLVLYLKVAELLSSGLQSAIDQIRAGKLCLSSTVKQVVRRLNELYKASVVSCQGLSLRLQRFFLDKQRLLDRIHSITAERLIFSHAVQMVQSAALDEMFQHREGCVPRYHKALLLLEGLQHMLSDQADIENVTKCKLCIERRLSALLTGICA

Test system: GLI-dependent firefly luciferase activity in Shh-LIGHT2 cells
Assay: GLI-dependent luciferase assay in Shh-L2 cells
Assay type: cell-based, mouse
Details: for enhancement of transcriptional activity of overexpressed GLI1: cotransfected with GLI1, Shh-L2 cells; for enhancement of transcriptional activity of overexpressed GLI2: cotransfected with GLI2, Shh-L2 cells; for stimulation of GLI-dependent luciferase activity: kinase construct alone, Shh-L2 cells, normalized with β-galactosidase
Procedure: Cells were transfected by the expression constructs or respective empty vectors using Polyethylenimine transfection agent (PEI) (Inbio) and as described in [28]. We used 0.25 μg of cDNA per 1 cm^2 of plate surface area for transfections. After 3 h of transfection HEK293, NIH3T3 and Cos1 cells were propagated in the normal growth medium for 48 h. Prior the further analysis the cells were washed twice with PBS. Post-transfectional Shh-L2 cells were grown in the normal growth medium for 24 h and for additional 24 h in the Light medium containing 0.25% FBS, washed once with PBS, lysed in Passive Lysis Buffer (Promega, Madison Wis., USA) (70 ul per well of 24-well plate format) and subjected to luciferase assay.
Luciferase assay was performed as previously described. Briefly, firefly luciferase activity of 12 μl of the Shh-L2 cells lysate was measured using Luciferase Assay Kit (Promega) and galactosidase activity was quantified using Galacto-LightPlus kit (Tropix, Bedford Mass., USA) according to the manufacturer's instructions. Chemiluminicence was measured using Ascent FL Fluoroscan (Thermo Electron Corporation, Waltham Mass., USA) according to the manufacturer's instructions.
We cotransfected the constructs together with GLI-expressing plasmids (or respective empty vector) into Shh-L2 cells and assessed their effect on GLI-dependent firefly luciferase activity. The obtained data was normalized with β-galactosidase values. […] It was able to stimulate the luciferase activity 3.8 times and enhanced the transcriptional activity of over expressed GLI1 and GLI2 approximately 2 and 3.2 times, respectively. The potency of STK36 in the assay was much lower.
In order to examine if the kinase activity of ULK3 is required for the luciferase reporter activation we tested the supposed kinase-deficient variants of ULK3, ULK3(K44R) and ULK3(K139R) in the same assay. […] We also tested the effect of ULK3 and the mutants on the luciferase reporter when the SHH pathway was activated by cotransfection with pShhN (plasmid expressing biologically active part of SHH).

Row | Molecule | enhancement of transcriptional activity of overexpressed GLI1 | enhancement of transcriptional activity of overexpressed GLI2 | stimulation of GLI-dependent luciferase activity
1 | B1 | no effect | 1.6 times | failed to activate
2 | B2 | no effect | no effect | 3.4 times
